In paper PMC9844859, “Appia: Simpler chromatography analysis and visualization” (PLOS ONE, 2023):

Target: T1, Human NEDD4-2-GFP (human, UniProt Q96PU5 1-975)
T1 construct: NEDD4-2 (E3 ubiquitin ligase NEDD4-like), human; also called NEDD4-2-GFP fusion protein; source: Sf9 cells (MOI of 5, 48 hours), purified (TALON resin, SEC)
T1 sequence (looked up): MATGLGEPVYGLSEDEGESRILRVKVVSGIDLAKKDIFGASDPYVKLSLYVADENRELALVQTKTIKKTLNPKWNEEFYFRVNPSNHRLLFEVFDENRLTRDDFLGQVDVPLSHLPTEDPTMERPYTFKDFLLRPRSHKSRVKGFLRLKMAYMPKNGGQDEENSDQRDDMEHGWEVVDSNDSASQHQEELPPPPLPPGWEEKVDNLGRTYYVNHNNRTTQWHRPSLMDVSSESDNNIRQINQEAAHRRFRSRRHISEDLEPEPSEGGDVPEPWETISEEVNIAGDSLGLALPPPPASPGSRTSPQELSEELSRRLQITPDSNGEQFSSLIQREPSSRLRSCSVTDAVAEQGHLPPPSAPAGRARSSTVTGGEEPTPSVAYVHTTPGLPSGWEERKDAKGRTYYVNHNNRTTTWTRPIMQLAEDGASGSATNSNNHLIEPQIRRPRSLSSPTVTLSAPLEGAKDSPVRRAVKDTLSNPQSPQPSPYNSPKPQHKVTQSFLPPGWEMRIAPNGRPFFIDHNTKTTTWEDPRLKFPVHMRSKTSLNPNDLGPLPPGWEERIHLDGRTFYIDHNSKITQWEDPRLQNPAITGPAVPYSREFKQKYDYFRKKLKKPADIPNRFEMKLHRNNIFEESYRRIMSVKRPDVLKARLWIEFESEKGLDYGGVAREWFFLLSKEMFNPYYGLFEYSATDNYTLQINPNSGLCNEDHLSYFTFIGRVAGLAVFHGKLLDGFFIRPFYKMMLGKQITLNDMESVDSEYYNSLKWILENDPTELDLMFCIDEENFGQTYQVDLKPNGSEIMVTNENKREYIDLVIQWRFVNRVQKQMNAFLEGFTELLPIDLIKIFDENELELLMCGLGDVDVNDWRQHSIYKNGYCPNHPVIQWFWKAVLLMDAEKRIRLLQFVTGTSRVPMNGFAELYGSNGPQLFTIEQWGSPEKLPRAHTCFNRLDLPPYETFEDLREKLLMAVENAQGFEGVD
Experiment: SEC; fluorescence-detection SEC (FSEC), GFP channel; NEDD4-2-GFP held at 71.2 nM, ENaC αβγ added in equal amounts, five-fold or ten-fold excess; Superose 6 Increase 10/300; TBS (20 mM Tris pH 7.5, 200 mM NaCl) + 0.5 mM DDM
Conditions: both partners purified

B1: triheteromeric αβγ Epithelial Sodium Channel (ENaC αβγ) (complex)
chain 1: MEGNKLEEQDSSPPQSTPGLMKGNKREEQGLGPEPAAPQQPTAEEEALIEFHRSYRELFEFFCNNTTIHGAIRLVCSQHNRMKTAFWAVLWLCTFGMMYWQFGLLFGEYFSYPVSLNINLNSDKLVFPAVTICTLNPYRYPEIKEELEELDRITEQTLFDLYKYSSFTTLVAGSRSRRDLRGTLPHPLQRLRVPPPPHGARRARSVASSLRDNNPQVDWKDWKIGFQLCNQNKSDCFYQTYSSGVDAVREWYRFHYINILSRLPETLPSLEEDTLGNFIFACRFNQVSCNQANYSHFHHPMYGNCYTFNDKNNSNLWMSSMPGINNGLSLMLRAEQNDFIPLLSTVTGARVMVHGQDEPAFMDDGGFNLRPGVETSISMRKETLDRLGGDYGDCTKNGSDVPVENLYPSKYTQQVCIHSCFQESMIKECGCAYIFYPRPQNVEYCDYRKHSSWGYCYYKLQVDFSSDHLGCFTKCRKPCSVTSYQLSAGYSRWPSVTSQEWVFQMLSRQNNYTVNNKRNGVAKVNIFFKELNYKTNSESPSVTMVTLLSNLGSQWSLWFGSSVLSVVEMAELVFDLLVIMFLMLLRRFRSRYWSPGRGGRGAQEVASTLASSPPSHFCPHPMSLSLSQPGPAPSPALTAPPPAYATLGPRPSPGGSAGASSSTCPLGGP
chain 2: MHVKKYLLKGLHRLQKGPGYTYKELLVWYCDNTNTHGPKRIICEGPKKKAMWFLLTLLFAALVCWQWGIFIRTYLSWEVSVSLSVGFKTMDFPAVTICNASPFKYSKIKHLLKDLDELMEAVLERILAPELSHANATRNLNFSIWNHTPLVLIDERNPHHPMVLDLFGDNHNGLTSSSASEKICNAHGCKMAMRLCSLNRTQCTFRNFTSATQALTEWYILQATNIFAQVPQQELVEMSYPGEQMILACLFGAEPCNYRNFTSIFYPHYGNCYIFNWGMTEKALPSANPGTEFGLKLILDIGQEDYVPFLASTAGVRLMLHEQRSYPFIRDEGIYAMSGTETSIGVLVDKLQRMGEPYSPCTVNGSEVPVQNFYSDYNTTYSIQACLRSCFQDHMIRNCNCGHYLYPLPRGEKYCNNRDFPDWAHCYSDLQMSVAQRETCIGMCKESCNDTQYKMTISMADWPSEASEDWIFHVLSQERDQSTNITLSRKGIVKLNIYFQEFNYRTIEESAANNIVWLLSNLGGQFGFWMGGSVLCLIEFGEIIIDFVWITIIKLVALAKSLRQRRAQASYAGPPPTVAELVEAHTNFGFQPDTAPRSPNTGPYPSEQALPIPGTPPPNYDSLRLQPLDVIESDSEGDAI
chain 3: MAPGEKIKAKIKKNLPVTGPQAPTIKELMRWYCLNTNTHGCRRIVVSRGRLRRLLWIGFTLTAVALILWQCALLVFSFYTVSVSIKVHFRKLDFPAVTICNINPYKYSTVRHLLADLEQETREALKSLYGFPESRKRREAESWNSVSEGKQPRFSHRIPLLIFDQDEKGKARDFFTGRKRKVGGSIIHKASNVMHIESKQVVGFQLCSNDTSDCATYTFSSGINAIQEWYKLHYMNIMAQVPLEKKINMSYSAEELLVTCFFDGVSCDARNFTLFHHPMHGNCYTFNNRENETILSTSMGGSEYGLQVILYINEEEYNPFLVSSTGAKVIIHRQDEYPFVEDVGTEIETAMVTSIGMHLTESFKLSEPYSQCTEDGSDVPIRNIYNAAYSLQICLHSCFQTKMVEKCGCAQYSQPLPPAANYCNYQQHPNWMYCYYQLHRAFVQEELGCQSVCKEACSFKEWTLTTSLAQWPSVVSEKWLLPVLTWDQGRQVNKKLNKTDLAKLLIFYKDLNQRSIMESPANSIEMLLSNFGGQLGLWMSCSVVCVIEIIEVFFIDFFSIIARRQWQKAKEWWAWKQAPPCPEAPRSPQGQDNPALDIDDDLPTFNSALHLPPALGTQVPGTPPPKYNTLRLERAFSNQLTDTQMLDEL
notes: ENaC alpha subunit; ENaC beta subunit; ENaC gamma subunit; The trypsin treatment may also cut the subunits themselves; also called αβγ ENaC; source: HEK293S GnTI- cells, baculovirus, purified (GFP nanobody resin, eluted with trypsin, SEC) as described for ENaC δβγ; copies: + +
percent of total NEDD4-2 bound at a 1:5 NEDD4-2:ENaC αβγ ratio: ~20%
